Target: response regulator PhoP of Mycobacterium tuberculosis (M. tuberculosis) (UniProt P71814)
Experiment: crystal structure

response regulator PhoP of Mycobacterium tuberculosis (from UniProt P71814 1-247) (natural protein)
stoichiometry N: 2

— paper PMC4832192
